Laboratory results as given in paper PMC11976700, “Engineering of Conserved Sequence Motif 1 Residues in Halohydrin Dehalogenase HheC Simultaneously Enhances Activity, Stability, and Enantioselectivity” (ACS Catalysis, 2025).
Read-outs that look alike come from different tables or passages of the source.

Legend:
OC(CCl)CCl = tested on: T1, OC(CCl)CCl; experiment: dehalogenation, halide release assay, Michaelis-Menten fit; assay type: biochemical, Agrobacterium tumefaciens; conditions: 25 mM Tris-SO4 pH 7.0, 30 °C
T1 construct: E. coli BL21(DE3); homotetramer
Excerpt: (§1) dehalogenation, halide release assay, Michaelis-Menten fit on HheC

ClCC1CO1 = experiment: purified protein; conditions: 2 mM MOPS-SO4 pH 7.0, 30 °C
[1] = substrate: C1CCC2OC2C1; assay type: biochemical, Ilumatobacter coccineus; conditions: 2 mM MOPS-SO4 pH 7.0, 22 °C, fixed azide (100 mM in table footnote, 60 mM in methods)
[2] = substrate: C1CCC2OC2C1; assay type: biochemical, Ilumatobacter coccineus; conditions: 2 mM MOPS-SO4 pH 7.0, 22 °C, fixed azide (100 mM in table footnote, 60 mM in methods); remark: listed apart in the source
[3] = substrate: C1CCC2OC2C1; assay type: biochemical, Ilumatobacter coccineus; conditions: 2 mM MOPS-SO4 pH 7.0, 22 °C, fixed 100 mM azide
[4] = substrate: C1CCC2OC2C1; assay type: biochemical, Ilumatobacter coccineus; conditions: 2 mM MOPS-SO4 pH 7.0, 22 °C, fixed azide (100 mM in table footnote, 60 mM in methods); remark: listed apart in the source
[5] = substrate: OC(CCl)CCl; experiment: dehalogenation, halide release assay, Michaelis-Menten fit; assay type: biochemical, Agrobacterium tumefaciens; conditions: 25 mM Tris-SO4 pH 7.0, 30 °C
Excerpt: as §1

purified protein = substrate: ClCC1CO1; experiment: purified protein; conditions: 2 mM MOPS-SO4 pH 7.0, 30 °C, fixed nonsaturating azide (100 mM in table footnote, 60 mM in methods)
[6] = fixed nonsaturating azide (100 mM in table footnote, 60 mM in methods)

## HheC (Agrobacterium tumefaciens; T7S)
OC(CCl)CCl
  Km: 810 ± 230 µM
  kcat: 1.37 ± 0.07 s⁻¹
ClCC1CO1; [6]
  K0.5: 40.3 ± 6.88 mM

## HheC (Agrobacterium tumefaciens; G14A)
OC(CCl)CCl
  Km: 920 ± 370 µM
  kcat: 0.05 ± 0.00 s⁻¹
ClCC1CO1; fixed 100 mM azide
  K0.5: 49.5 ± 1.52 mM

## HheC (Agrobacterium tumefaciens; F12Y)
OC(CCl)CCl
  Km: 980 ± 190 µM
  kcat: 6.30 ± 0.26 s⁻¹
ClCC1CO1; [6]
  K0.5: 14.2 ± 0.67 mM

B1: HheG (Ilumatobacter coccineus YM16-304; T13S) (protein)
chain: MSNAENRPVALISMATGYVGPALARTMADRGFDLVLHGTAGDGTMVGVEESFDSQIADLAKRGADVLTISDVDLTTRTGNQSMIERVLERFGRLDSACLVTGLIVTGKFLDMTDDQWAKVKATNLDMVFHGLQAVLPPMVAAGAGQCVVFTSATGGRPDPMVSIYGGTRAGANGIVRAVGLEHARHGVQVNAIGTNYMDFPGFLKASRADGDPERRAMIEAQVPLRRLGTMDELSSVTAGLLDGSNRFQTGQFFDFSGGWGA
notes: E. coli BL21(DE3); homotetramer
[1]
  K0.5: 44.8 ± 1.29 mM

B2: HheG (Ilumatobacter coccineus YM16-304; Y18F) (protein)
chain: MSNAENRPVALITMATGFVGPALARTMADRGFDLVLHGTAGDGTMVGVEESFDSQIADLAKRGADVLTISDVDLTTRTGNQSMIERVLERFGRLDSACLVTGLIVTGKFLDMTDDQWAKVKATNLDMVFHGLQAVLPPMVAAGAGQCVVFTSATGGRPDPMVSIYGGTRAGANGIVRAVGLEHARHGVQVNAIGTNYMDFPGFLKASRADGDPERRAMIEAQVPLRRLGTMDELSSVTAGLLDGSNRFQTGQFFDFSGGWGA
notes: as for B1
[2]
  K0.5: 66.4 ± 1.42 mM

B3: HheG (Ilumatobacter coccineus YM16-304; G20A) (protein)
chain: MSNAENRPVALITMATGYVAPALARTMADRGFDLVLHGTAGDGTMVGVEESFDSQIADLAKRGADVLTISDVDLTTRTGNQSMIERVLERFGRLDSACLVTGLIVTGKFLDMTDDQWAKVKATNLDMVFHGLQAVLPPMVAAGAGQCVVFTSATGGRPDPMVSIYGGTRAGANGIVRAVGLEHARHGVQVNAIGTNYMDFPGFLKASRADGDPERRAMIEAQVPLRRLGTMDELSSVTAGLLDGSNRFQTGQFFDFSGGWGA
notes: as for B1
[3]
  K0.5: 42.2 ± 3.64 mM

B4: HheG (Ilumatobacter coccineus YM16-304) (protein)
chain: MSNAENRPVALITMATGYVGPALARTMADRGFDLVLHGTAGDGTMVGVEESFDSQIADLAKRGADVLTISDVDLTTRTGNQSMIERVLERFGRLDSACLVTGLIVTGKFLDMTDDQWAKVKATNLDMVFHGLQAVLPPMVAAGAGQCVVFTSATGGRPDPMVSIYGGTRAGANGIVRAVGLEHARHGVQVNAIGTNYMDFPGFLKASRADGDPERRAMIEAQVPLRRLGTMDELSSVTAGLLDGSNRFQTGQFFDFSGGWGA
notes: as for B1
[4]
  K0.5: 39.4 ± 2.69 mM

B5: HheC (Agrobacterium tumefaciens) (protein)
chain: MSTAIVTNVKHFGGMGSALRLSEAGHTVACHDESFKQKDELEAFAETYPQLKPMSEQEPAELIEAVTSAYGQVDVLVSNDIFAPEFQPIDKYAVEDYRGAVEALQIRPFALVNAVASQMKKRKSGHIIFITSATPFGPWKELSTYTSARAGACTLANALSKELGEYNIPVFAIGPNYLHSEDSPYFYPTEPWKTNPEHVAHVKKVTALQRLGTQKELGELVAFLASGSCDYLTGQVFWLAGGFPMIERWPGMPE
notes: as for B1
[5]
  Km: 450 ± 140 µM
  kcat: 1.84 ± 0.11 s⁻¹
Purified protein
  K0.5: 18.8 ± 1.24 mM
